Experimental data taken from patent US20260125469A1 (Hoffmann-La Roche, published 2026).
Substitutions are numbered along the chain they refer to. In names and notes the source's numbering stands.

B1: CEACAM5-TCB, CEACAM5 CD3 variant P035.093 (bispecific antibody, human IgG1, kappa, L234A L235A)
heavy 1: not shown
heavy 2: QVQLVQSGAEVKKPGSSVKVSCKASGFNIKDTYMHWVRQAPGQGLEWMGRIDPANGNSKYVPKFQGRVTITADTSTSTAYMELSSLRSEDTAVYYCAPFGYYVSDYAMAYWGQGTLVTVSSASTKGPSVFPLAPSSKSTSGGTAALGCLVEDYFPEPVTVSWNSGALTSGVHTFPAVLQSSGLYSLSSVVTVPSSSLGTQTYICNVNHKPSNTKVDEKVEPKSCDKTHTCPPCPAPEAAGGPSVFLFPPKPKDTLMISRTPEVTCVVVDVSHEDPEVKFNWYVDGVEVHNAKTKPREEQYNSTYRVVSVLTVLHQDWLNGKEYKCKVSNKALGAPIEKTISKAKGQPREPQVCTLPPSRDELTKNQVSLSCAVKGFYPSDIAVEWESNGQPENNYKTTPPVLDSDGSFFLVSKLTVDKSRWQQGNVFSCSVMHEALHNHYTQKSLSLSP
light 1: EIVLTQSPATLSLSPGERATLSCRAGESVDIFGVGFLHWYQQKPGQAPRLLIYRASNRATGIPARFSGSGSGTDFTLTISSLEPEDFAVYYCQQTNEDPYTFGQGTKLEIKRTVAAPSVFIFPPSDRKLKSGTASVVCLLNNFYPREAKVQWKVDNALQSGNSQESVTEQDSKDSTYSLSSTLTLSKADYEKHKVYACEVTHQGLSSPVTKSFNRGEC
light 2: EVQLLESGGGLVQPGGSLRLSCAASGFTFSSYAMNWVRQAPGKGLEWVSRIRSKYNNYATYYADSVKGRFTISRDDSKNTLYLQMNSLRAEDTAVYYCVRASNFPASYVSYFAYWGQGTLVTVSSASVAAPSVFIFPPSDEQLKSGTASVVCLLNNFYPREAKVQWKVDNALQSGNSQESVTEQDSKDSTYSLSSTLTLSKADYEKHKVYACEVTHQGLSSPVTKSFNRGEC
notes: 2+1 IgG CrossFab, inverted; human IgG1 Fc, knob-into-hole, PGLALA; also called P035.093 in CEACAM5-TCB format
B2: CEACAM5-TCB, CEACAM5 CD3 variant P004.042 (bispecific antibody, human IgG1, kappa, L234A L235A)
heavy 1: not shown
heavy 2: B1 heavy 2
light 1: B1 light 1
light 2: B1 light 2 with T28Q, S30D, S31N, S53T, N57E, A106Q, A113G
notes: 2+1 IgG CrossFab, inverted; human IgG1 Fc, knob-into-hole, PGLALA; also called P004.042 in CEACAM5-TCB format
B3: CEACAM5-TCB with CD3orig as CD3 binder (bispecific antibody, human IgG1, kappa, L234A L235A)
heavy 1: not shown
heavy 2: B1 heavy 2
light 1: B1 light 1
light 2: B1 light 2 with S31T, A101H, S102G, P105G, A106N, Y111W
notes: also called CD3orig in CEACAM5-TCB format
B4: TYRP1-TCB with the parental CD3 binder CD3orig (bispecific antibody, human IgG1, kappa, L234A L235A)
heavy 1: not shown
heavy 2: QVQLVQSGAEVKKPGASVKVSCKASGFNIKDYFLHWVRQAPGQGLEWMGWINPDNGNTVYAQKFQGRVTMTADTSTSTVYMELSSLRSEDTAVYYCTRRDYTYEKAALDYWGQGTLVTVSSASTKGPSVFPLAPSSKSTSGGTAALGCLVEDYFPEPVTVSWNSGALTSGVHTFPAVLQSSGLYSLSSVVTVPSSSLGTQTYICNVNHKPSNTKVDEKVEPKSCDKTHTCPPCPAPEAAGGPSVFLFPPKPKDTLMISRTPEVTCVVVDVSHEDPEVKFNWYVDGVEVHNAKTKPREEQYNSTYRVVSVLTVLHQDWLNGKEYKCKVSNKALGAPIEKTISKAKGQPREPQVCTLPPSRDELTKNQVSLSCAVKGFYPSDIAVEWESNGQPENNYKTTPPVLDSDGSFFLVSKLTVDKSRWQQGNVFSCSVMHEALHNHYTQKSLSLSP
light 1: DIQMTQSPSSLSASVGDRVTITCRASGNIYNYLAWYQQKPGKVPKLLIYDAKTLADGVPSRFSGSGSGTDFTLTISSLQPEDVATYYCQHFWSLPFTFGQGTKLEIKRTVAAPSVFIFPPSDRKLKSGTASVVCLLNNFYPREAKVQWKVDNALQSGNSQESVTEQDSKDSTYSLSSTLTLSKADYEKHKVYACEVTHQGLSSPVTKSFNRGEC
light 2: B1 light 2 with S31T, A101H, S102G, P105G, A106N, Y111W
notes: Same 2+1 format as m1; also called CD3orig in TCB format
B5: TYRP1-TCB with anti-CD3 antibody clone P035.064 (bispecific antibody, human IgG1, kappa, L234A L235A)
heavy 1: not shown
heavy 2: B4 heavy 2
light 1: B4 light 1
light 2: B1 light 2 with T28D, S30D, S31N, Y55H, N57G, A106S, A113G
notes: human IgG1 Fc, knob-into-hole, P329G L234A L235A; also called P035.064 in TCB format
B6: TYRP1-TCB with anti-CD3 antibody clone P021.045 (bispecific antibody, human IgG1, kappa, L234A L235A)
heavy 1: not shown
heavy 2: B4 heavy 2
light 1: B4 light 1
light 2: B1 light 2 with A106S
notes: human IgG1 Fc, knob-into-hole, P329G L234A L235A; also called P021.045 in TCB format
B7: TYRP1-TCB with anti-CD3 antibody clone P035.093 (bispecific antibody, human IgG1, kappa, L234A L235A)
heavy 1: not shown
heavy 2: B4 heavy 2
light 1: B4 light 1
light 2: B1 light 2
notes: human IgG1 Fc, knob-into-hole, P329G L234A L235A; also called P035.093 in TCB format
B8: TYRP1-TCB with anti-CD3 antibody clone P004.042 (bispecific antibody, human IgG1, kappa, L234A L235A)
heavy 1: not shown
heavy 2: B4 heavy 2
light 1: B4 light 1
light 2: B1 light 2 with T28Q, S30D, S31N, S53T, N57E, A106Q, A113G
notes: human IgG1 Fc, knob-into-hole, P329G L234A L235A; also called P004.042 in TCB format

Biological target: human CD3 on cells (CD3ε) (human, UniProt P07766 23-207)
Assay: cell-based or functional assay

Chain of human CD3 on cells (CD3ε) (P07766 23-207 limits assumed): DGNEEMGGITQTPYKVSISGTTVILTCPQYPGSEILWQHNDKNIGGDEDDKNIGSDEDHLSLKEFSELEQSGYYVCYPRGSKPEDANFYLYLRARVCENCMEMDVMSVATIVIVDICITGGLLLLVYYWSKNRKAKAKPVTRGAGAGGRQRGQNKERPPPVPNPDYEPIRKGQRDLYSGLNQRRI

Binder | EC50 24 h (pM), T-cell mediated lysis of CEACAM5-expressing LS180 tumor cells | EC50 48 h (pM), T-cell mediated lysis of CEACAM5-expressing LS180 tumor cells
B1 | 22 pM | 14.2 pM
B2 | 59.1 pM | 36.9 pM
B3 | 244 pM | 115 pM

Biological target: T1, Human CD3ε stalk-Fc(knob)-Avi/CD3δ stalk-Fc(hole) (human)
T1 construct: Heterodimer of CD3 delta and CD3 epsilon ectodomains fused to human Fc with knob-into-hole; also called human CD3ε/δ; CD3 antigen
Assay: SPR, TCB captured by anti-PG antibody, antigen as analyte, 25°C
Text: (§1) For affinity measurements, TCB molecules were captured on a C1 sensorchip (GE Healthcare) surface with immobilized anti-Fc(P329G) IgG (an antibody that specifically binds human IgG₁ Fc(P329G); “anti-PG antibody”—see WO 2017/072210, incorporated herein by reference). The experimental setup is schematically depicted in FIG. 3. Capture IgG was coupled to the sensorchip surface by direct immobilization of around 400 resonance units (RU) using the standard amine coupling kit (GE Healthcare Life Sciences).
(§2) To analyze the interaction to CD3, TCB molecules were captured for 80 s at 25 nM with a flow rate of 10 μl/min. […] The dissociation was monitored for 800 s.
(§3) Kinetic constants were derived using the Biacore T200 Evaluation Software (GE Healthcare Life Sciences), to fit rate equations for 1:1 Langmuir binding by numerical integration. The half-life (t_{1/2}) of the interaction was calculated using the formula t_{1/2}=ln2/koff.

Binder | Kd | koff | kon | t1/2
B4 | 6.54 nM | 0.00338 s⁻¹ | 517000 M⁻¹ s⁻¹ | 3.42 min
B5 | 0.63 nM | 0.00115 s⁻¹ | 1.83e+06 M⁻¹ s⁻¹ | 10 min
B6 | 0.43 nM | 0.00133 s⁻¹ | 3.1e+06 M⁻¹ s⁻¹ | 8.69 min
B7 | 0.41 nM | 0.00153 s⁻¹ | 3.75e+06 M⁻¹ s⁻¹ | 7.55 min
B8 | 1.54 nM | 0.00295 s⁻¹ | 1.92e+06 M⁻¹ s⁻¹ | 3.92 min

Biological target: T2, Cynomolgus CD3ε stalk-Fc(knob)-Avi/CD3δ stalk-Fc(hole) (cynomolgus)
T2 construct: also called cynomolgus CD3ε/δ
Assay: as above
Text: as §1, §2, §3

Binder | Kd | koff | kon | t1/2
B5 | 0.38 nM | 0.000921 s⁻¹ | 2.44e+06 M⁻¹ s⁻¹ | 12.5 min
B6 | 0.2 nM | 0.000967 s⁻¹ | 4.88e+06 M⁻¹ s⁻¹ | 11.9 min
B7 | 0.21 nM | 0.00104 s⁻¹ | 4.89e+06 M⁻¹ s⁻¹ | 11.1 min
B8 | 0.71 nM | 0.00272 s⁻¹ | 3.85e+06 M⁻¹ s⁻¹ | 4.25 min

Biological target: T1, Human CD3ε stalk-Fc(knob)-Avi/CD3δ …
Assay: as above
Remark: another data set of the same source
Text: as §1, §3
(§4) To analyze the interaction to CD3, TCB molecules were captured for 240 s at 25 nM with a flow rate of 10 μl/min. Human and cynomolgus CD3F stalk-Fc(knob)-Avi/CD36-stalk-Fc(hole) were passed at a concentration of 0.14-100 nM with a flow rate of […] through the flow cells for 240 s. The dissociation was monitored for 800 s.

Binder | Kd | koff | kon | t1/2
B1 | 0.384 nM | 0.00111 s⁻¹ | 2.93e+06 M⁻¹ s⁻¹ | 10.4 min
B2 | 1.31 nM | 0.00261 s⁻¹ | 2.02e+06 M⁻¹ s⁻¹ | 4.42 min
B3 | 3.37 nM | 0.00281 s⁻¹ | 851000 M⁻¹ s⁻¹ | 4.1 min

Biological target: T2, Cynomolgus CD3ε stalk-Fc(knob)-Avi/CD3δ …
Assay: as above
Remark: another data set of the same source
Text: as §1, §3, §4

Binder | Kd | koff | kon | t1/2
B1 | 0.201 nM | 0.000765 s⁻¹ | 3.8e+06 M⁻¹ s⁻¹ | 15.1 min
B2 | 0.641 nM | 0.00162 s⁻¹ | 2.54e+06 M⁻¹ s⁻¹ | 7.1 min

Biological target: T1, Human CD3ε stalk-Fc(knob)-Avi/CD3δ …
Assay: SPR on immobilized human CD3ε/δ after stress, relative to sample kept at -80°C pH 6
Procedure: (§5) In order to assess the effect of the deamidation site removal and its effect on the stability of the antibodies, the optimized anti-CD3 antibodies (in TCB format) were incubated for 14 days at 37° C., pH 7.4 and at 40° C., pH 6 and further analyzed by SPR for their binding capability to human CD3ε/δ. Samples stored at −80° C. pH 6 were used as reference. The reference samples and the samples stressed at 40° C. were in 20 mM His, 140 mM NaCl, pH 6.0, and the samples stressed at 37° C. in PBS, pH 7.4, all at a concentration of 1.0 mg/ml. After the stress period (14 days) samples in PBS were dialyzed back to 20 mM His, 140 mM NaCl, pH 6.0 for further analysis.
(§6) All SPR experiments were performed on a Biacore T200 instrument (GE Healthcare) at 25° C. with HBS-P+ (10 mM HEPES, 150 mM NaCl pH 7.4, 0.05% Surfactant P20) as running and dilution buffer. Biotinylated human CD3ε/δ (see Example 3, SEQ ID NOs 41 and 42) as well as biotinylated anti-huIgG (Capture Select, Thermo Scientific, #7103262100) were immobilized on a Series S Sensor Chip SA (GE Healthcare, #29104992), resulting in surface densities of at least 1000 resonance units (RU). Anti-CD3 antibodies with a concentration of 2 μg/ml were injected for 30 s at a flow rate of 5 μl/min, and dissociation was monitored for 120 s. The surface was regenerated by injecting 10 mM glycine pH 1.5 for 60 s. Bulk refractive index differences were corrected by subtracting blank injections and by subtracting the response obtained from a blank control flow cell. For evaluation, the binding response 5 seconds after injection end was taken. To normalize the binding signal, the CD3 binding was divided by the anti-huIgG response (the signal (RU) obtained upon capture of the CD3 antibody on the immobilized anti-huIgG antibody). The relative binding activity was calculated by referencing each temperature stressed sample to the corresponding, non-stressed sample.

Binder | binding activity [%] after 2 weeks at pH 6.0/40°C | binding activity [%] after 2 weeks at pH 7.4/37°C
B4 | 95% | 65%
B5 | 97% | 96%
B6 | 99% | 95%
B7 | 97% | 95%
B8 | 98% | 98%

Biological target: T1, Human CD3ε stalk-Fc(knob)-Avi/CD3δ …
Assay: as above
Remark: another data set of the same source
Procedure: as §5, §6
The experiment was performed as described in Example 4, using the TCB molecules prepared in Example 7.

Binder | binding activity [%] after 2 weeks at pH 6.0/40°C | binding activity [%] after 2 weeks at pH 7.4/37°C
B1 | 100% | 97%
B2 | 100% | 99%
B3 | 95% | 66%
